Source: the domain aggregation screens of Martell et al. (2025)

Assay: soluble fraction after stress (log2 fold change); higher = more stays soluble; pooled small domains, quantitative proteomics
Settings: stress: 75 degC
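Also: 20 min heating vs room temperature control held 20 min.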

First: HMEVVRVEPGATVRDLGEALGVPPTRIIQILMGLGEMKTVTQTLSTEEIELVAEELGRRVEV
Second: HMEWVVVPDVRRQLLPEAQRRVNKARLRLEVAGGWPAEPLLAMVVDQKPGPETRVPLNSIVVVVVRNLP
The “soluble fraction (log2)” value of the first is higher: -0.108 for the first, -0.981 for the second.

Going from “HMEYELYALKEEVLKRLTREDRELLILLFEERRTIHAVAQRLGLSDSAVYKRRTQLVNKVKVIASMLM” to “HMEYKNYYDSPVGRLELLSDGVSLTAVLFENQQGDGTREENTSLAIFKEATQWLDAYFKGDNPEITIPL”, the “soluble fraction (log2)” value rises from -2.22 to 0.0228.

First: HMEYKTGIINTNKVRVRNAADADATVIFAINKDIKVKILAEENGFYKIGVSVKNRGNGEDLIGFVKKELIT
Second: HMEYQTVEKSEAEQIIQELEKAERLALKVYSKNDIITGISVSDGKSYYFSAELVPMLKNIIENPEIKIL
The “soluble fraction (log2)” value of the first is lower: -1.81 for the first, -0.795 for the second.

Going from “HMEYRVRDKMTDILELLTEHRGRIALRDAFPTGTREELLAAFLALLELTKMQTVIVYQDRLYDDIQIVMK” to “HMEYSTLEIYSQTKKDLIEKSPHLNKVVYDKDDGYIYLLSFEKEDDLTSFKSNIENDSDIKRIEANV”, the “soluble fraction (log2)” value rises from -0.354 to 0.121.

First: HMEYTVNRLAQISGVSKRTLRYYDEIGLLRPERVNPNGYRIYGQMQVDLLQQILFYRELGLPLEEIREII
Second: HMFAATGVVNAPSGLVLRETASKGGNPLATVPDKAQVEIVEEDGEWYKVKVNEQTGYLFAEFVNKTE
The “soluble fraction (log2)” value of the first is lower: -0.502 for the first, -0.0895 for the second.

Going from “HMFAQDQLFKKDNSKVDVKILEINTTEIKYKLFTYQDGPTITVAKKDVALIIYQNGVHEVIT” to “HMFAVPAPEVDDILSEKKVDVLLLGPQVRYLLEQFTEKLKDKNIPIGVIPMVDYGMMNGSKVLALAEELIG”, the “soluble fraction (log2)” value rises from -2.53 to 0.131.

Going from “HMFDFGNHLRMLREKHGISQEELGRRVGRAGSVISNYENNIKIPTLDVLTTMARIYDVSLDYLVG” to “HMFDFNNLSSLSDVELSVYRFVVNNPEKVAYMRVRDIAQKTHVANSSVMRFVHKIGFASFPEFKAYLKNIN”, the “soluble fraction (log2)” value rises from -1.59 to -0.997.

Going from “HMFDITKEVLKQSGLYNLYKNDESLEGINRIQNIEELLNGIKDFVENNEKSQASVSSFLQDVALATDQ” to “HMFDKVSVNNLAEAIGRLDGIYQDVLRLYYVHELPSKEIGKILNINHLTVNTRLKRAREKLFKMLKEE”, the “soluble fraction (log2)” value falls from 0.258 to -3.11.

Compared with “HMFDNPLSERDKEILNHISMGKSNKEIANQVGLAEQTIKNTISVILDKTFTSNRAQAASMATKNKW”, “HMFDPTDLPEKQLMVYEIIKSNNGINMTNIASLLGFNKTTVDNAIRALKKKEIVVFKGTNRSGGYFNT” is lower in “soluble fraction (log2)” value: 0.666 for the first, -1.91 for the second.

Compared with “HMFEDEYLETMYAFYETDPQALVRTGDLASSLKVSPASATEMVQRLASKGFVDYIPYKGASLTELGLAM”, “HMFEDYLRMKGLSIVSFSKQTGIPISTLRNLNKIRYDKWKIRYLEELSNVLNKTIQEIIEELKNMG” is lower in “soluble fraction (log2)” value: 0.0785 for the first, -3.5 for the second.

“HMFEFFKGIYSISLLKKDGIFFVTFKDENKEAVKHIFPEKPTALELGIKVMEMFEYKERYDGII” and “HMFEPLTDREREVLQALADGLSDKEIAERLYISPATVRTHITAILGKLDANSRLQAVVVAARHNLVTL” are within 0.2 log units of each other in “soluble fraction (log2)” value: -0.455 for the first, -0.478 for the second.

Going from “HMFERISELLTDEELAVYKRGRNANASSVPKHADIADYRRATGVEALFGYLYIKGEIDRINQLFELA” to “HMFESQYIGKIATAITDISAFSGRLKIYDENWEARTLGEDAPEIKKGAKVKIVRHDDLTMFVEKK”, the “soluble fraction (log2)” value falls from -0.154 to -0.397.

Compared with “HMFETLVLALAQAWPAERGPVEALQFEGGRLSLQRSGFADEQVEALRQRLSSEGWTLQTEQGRLILNKAG”, “HMFFDSDTDIQNALNAENSIKKYQLFRTQTLYNSAQSDIDFVNQPEVKAKLFDALENLKNKLGFLAEPT” is higher in “soluble fraction (log2)” value: -1.17 for the first, -0.0329 for the second.

“HMFGIEIPEEAGKLQDYTLTDDDLEGGNTLKEIQFPQGARVVIIRRDDKFIIPDGSVELQSGDQLLIIYGE” and “HMFGSKDVKRAIEDYAAAMSSQPRALSAPQRKVLIRHLATSGLLQLRGAAKIVADELGISRASVYNALKV” are within 0.2 log units of each other in “soluble fraction (log2)” value: -1.59 for the first, -1.53 for the second.

Going from “HMFHDPTMEETLINLKGITNEVLSLLSSSKIKKLEDLAEMSVPELRDIVENISDEEASALIMEARKPWF” to “HMFHGEGVQANNIQAYIVLKMAAVNGAEDALDTADEVSEKMSREDLETATQVLGQIFRKYLMELQSA”, the “soluble fraction (log2)” value falls from -0.22 to -1.22.

Going from “HMFIKVEVPDLTGMTLTEVRKALEEKNLKMGDIRPAGQTSLVAKVINQSPQAKMVVDEYSEVSIQFEE” to “HMFIMQTVALGSEGPDVRALQSILNRIGYNAGTVDGIFGSRTRQAVIAFQRNNGLAADGVAGPATWG”, the “soluble fraction (log2)” value rises from -0.985 to 0.188.

Going from “HMFINITAITGNNYNTPDAARNALPNTYNKKIGLVFTYRDLTNRYRVYLYNSETSNYIPLDSYM” to “HMFIPGDSVRVHVKVVEGSNERIQMFEGVVIARQGSGVRENFTVRRISYGVGIERTFPVHSPRL”, the “soluble fraction (log2)” value rises from -3.5 to -0.226.

Compared with “HMFISVDGLIHMGRTHLVILGGVEFARGDMIPETGEVVKSIGADSVVLELPDTGMRRTLNFV”, “HMFKINNIIVSGLSEKSNLQTSEEIKNILFENIFFIKKDVLFKILEKNNLINSFEIKKIYPDTIEVKIKKT” is higher in “soluble fraction (log2)” value: -2.97 for the first, 0.0453 for the second.

Going from “HMFKITNTLNKTAEVYLTIPENKKGKGKIMISVNGAFHELEAMTENDKIQSGAVVKVVRIENDNILIVET” to “HMFKMRVNGKEVIGMAITAKPQANPIDVADEIKKFVIDANTKLPSTMKLEVLYDATGIFRASISEVIS”, the “soluble fraction (log2)” value rises from -2.18 to -1.08.

Going from “HMFLDKDTLNQLYRFGIALTGNEQDSQDVLHTAIERFLRNKPQQINQQAAYIRTIMRNYWYDELRKLKTQ” to “HMFLPETEVKSFFHRGITKISPSLAMDIADFFRMPFAVILKRALALEVISDEQYRSFMTVKPEHV”, the “soluble fraction (log2)” value rises from -3.06 to 0.137.

“HMFLSQQDINRANAASVTDMGDIIRRTFERNAAEINGLELSDAEKKDAVKQMATLATTALKTAAGAVNPY” and “HMFLSSEERRERIIEVLRQQDEVTVVELSHRLGVSEVTTRKDLQQLEEQGYLTRVRGGAVVSGRGQL” are within 0.2 log units of each other in “soluble fraction (log2)” value: -0.0457 for the first, -0.0348 for the second.

“HMFMNFAEHLMALRKQRGWSQEELGSQIGVTRQTVSKWEMGQSTPELEKLVELSRLFGMSIDQLVGL” and “HMFNISEKLKKYRNALGLTQTEVAEKIEITKPTYASYEKGKDISIGTLKKLADLFEVSFESFFSE” are within 0.2 log units of each other in “soluble fraction (log2)” value: -0.118 for the first, -0.283 for the second.

Going from “HMFNLFPHLSVLRNITLAPQKVKGLNRSESNEIAMSLLERVGIPEQSDKFPSQLSGGQQQRVAIARALAM” to “HMFPELSEEEQIIVSLLQKQPDGLQINTLVVESNIPVNRMSGILFELEMKGIIRMAAGGVYRLL”, the “soluble fraction (log2)” value falls from -0.502 to -1.35.

Compared with “HMFQEGLVAPPAYTRPESFRGWEVPEILRSGNFPAIAKWQHEESLRLTRERRPAMLEAYERRT”, “HMFQNYTDAVVVASKTFFYNMPDESTRKSAYLIQGDRIMVEKSQRNFVYVTFTNEASGRTTTGWLKSDDLE” is lower in “soluble fraction (log2)” value: -0.107 for the first, -2.65 for the second.

First: HMFSDDEINRLKARDSILVNLRDSEKQVWELYTDGKTVQNIANQLNKHKQSISATIINIKNKISRKQNMLK
Second: HMFSGVQLGQAISEAIKRKNVSQKEVADHFGVKQPSVSGWIKNGRIDKKHLDKLIDYFSDVVTPSHFGIE
The “soluble fraction (log2)” value of the first is lower: -0.709 for the first, 0.27 for the second.

Compared with “HMFSQDQIFLRSGEKIDARVIEVTPEFIKYKSKANPEGPLYSKKITDVLLITYANGTTEVYE”, “HMFTDAEIKQFAAAAVEVTKIQQDSTISAADKQPKMLAVVQSSGLPPEKFNQIGQAAAADPALQQRIQA” is higher in “soluble fraction (log2)” value: -0.764 for the first, 0.038 for the second.

Going from “HMFTEPQKLVKRILNMLGHRYDDASIQARSDFQASNNYHKVQVKKKRESMEEYTAWLEEMYDAYRIN” to “HMFTFEDMDKFESLLTTGLTDVQRRIYSLVTHDGKEYDLIAETLGISVEAVRMHMSRARKKIRENYKKID”, the “soluble fraction (log2)” value falls from -1.49 to -3.38.

First: HMFTIGENIRDLRLERAITQEQLAEQLNVSAPAVSKWERGEAYPDITLVPKLAEILGVSTDKLFGVD
Second: HMFTKYSPDFKLSVILDMRKNNLGYGEVVRKYWNLDSYKESDRHRSQVRLWERIFLEEGVEGFM
The “soluble fraction (log2)” value of the first is higher: 0.0273 for the first, -4.63 for the second.

Compared with “HMFTLDDLQATYDIFERAEQNSDAMLAFQKVITAEGLDFDLTSPQGIVDFFKGAAPTEIYDLYEAS”, “HMFTNSTSSRQLTNSDDTLRLNISSQTRQMLPNGQPFGGSLSGKLLLVIYGATTRSIPAQTTPEKIVV” is higher in “soluble fraction (log2)” value: -0.547 for the first, -0.198 for the second.

First: HMFTSVDVAPDLRTAKVFYSVLGRKKSDKEINIAINQKRKAFKKFMGPELHLKNIPDLHFYYD
Second: HMFTYDLSERELTIIELVAKGLNNKELADTLFLSEGTIRNYLSTLLNKLDLRDRTQLAIFYYQHL
The “soluble fraction (log2)” value of the first is higher: -0.369 for the first, -2.16 for the second.

First: HMFVEEGSLKKITFDTYEFNITDNLKSLRVTYQGLLPNLFREGQGVVIEGILLEQNYIQANTVF
Second: HMFVTGTTIKKLREEKRMTQGELAQMIGVSDKAVSKWETGRGLPDISLLEPLSRALGISVAELFAGQH
The “soluble fraction (log2)” value of the first is higher: 0.249 for the first, -0.612 for the second.

Compared with “HMFWEGYLAARREQFLKDQQVLLGNEFRSNPDFWLEVASKEWAVVEERLSTGADVSEEVQETMGLDF”, “HMFYNSSDNAYKILEINKSATVDEIKAAYRKMAKKYHPDKVIHLGQEHQKGAEEKFRQVQEAYEELQKERG” is higher in “soluble fraction (log2)” value: -2.13 for the first, 0.19 for the second.

Compared with “HMGAAVEVISLRYRSAAELLPIVRSLLSTEGKISADERTNSLIIVDSDEAVARVIHSLATLDT”, “HMGADGIPGKNGENGETSYVHFAYATSADGKTGFSTTDTVGKTYMGQYADFEKADSEDPTKYRWGKFQGP” is higher in “soluble fraction (log2)” value: -1.3 for the first, 0.0581 for the second.

Going from “HMGAFAIHTASELSAGMRIRHERFGPGVITGIDTANPASGARIQVDFDNGTSKTLLLSYAKFQI” to “HMGAGKVVDGVTYDFVFDVDVADGQPPLRLPYNRGEDVYQAAERFILRNELPATYREQIVNFIVQNTPG”, the “soluble fraction (log2)” value rises from -2.53 to -0.116.

Going from “HMGAISGEQREFYTVFRGHLNSHVGEFKVEDIENLLMKAKTEVPDLLEEEFLKMGEAILNRYRN” to “HMGAKEHLAGETLRMAVELLSEKQGIPAEQALIRFISSPVYDALYDLDTGMWTQGPTRLLEAFEALE”, the “soluble fraction (log2)” value falls from 0.0818 to -2.01.
